The data set deals with the molecule itself. Nature of the data set: solid-state (MAS) NMR of fibrils; synthetic peptide aggregated at 1 mg/mL in PBS pH 7.4 at 37 °C, harvested by centrifugation after 2-3 weeks; 1H-15N HETCOR, 13 kHz MAS, 275 K.

Square brackets hold non-standard residues; d marks the D form. Ends that are not written are not given here.

B1: K2Q11pGQ11K2 polyQ peptide (peptide)
peptide: KKQQQQQQQQQQQ[dP]GQQQQQQQQQQQKK
modifications: also: two sequential Gln uniformly 13C,15N labelled, positions not given here
notes: written out from the printed formula K2Q11pGQ11K2; p is D-proline; also called polyQ model peptide; source: synthetic peptide (Yale University peptide facility)
Turning to B1, the binding result is “binds”.

Values taken from PMC11686214, “Integrative determination of atomic structure of mutant huntingtin exon 1 fibrils implicated in Huntington disease” (Nature Communications, 2024).
